Test results reported in the supplement of paper PMC10567573.

B1: KCNAB2 (parent)
chain: YVDVVFANRPDPNTPMEETVRAMT
B2: PKD2L1 (parent)
chain: VFIFYYVVEEILELHIHRLRYLSS

Variants of: B1
Assay: protein stability index of a GFP-peptide fusion (GPS, HEK-293T) (PSI 1-6); higher = more stable
Details: c terminus: a fixed tail appended
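Note: lentivirally expressed fusions sorted by FACS into six bins by GFP to DsRed ratio, PSI derived from sequencing read proportions per bin multiplied by bin number.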

Protein stability index of substitutions, site by site:
A7: T 2.12, E 2.19, V 3.18, Q 2.15, L 1.98, F 3.08, K 1.64, R 1.97, D 2.02, I 1.88, G 2.2, Y 2.64, P 2.14, N 1.97, S 2.13, H 2.09, W 2.45, C 1.74, M 2.16
V4: Q 1.71, D 2.26, S 1.67, I 1.83, T 2.12, F 2.3, H 1.39, C 1.51, W 2.33, L 2.66, N 1.64, G 3.05, E 2.07, R 2.52, A 1.98, P 1.87, Y 1.85, M 2.87, K 2.31
R9: H 1.66, E 2.15, G 2.17, I 2.07, M 2.67, Y 1.47, P 2.84, N 2.22, Q 1.98, W 2.72, K 1.69, L 2.27, F 2.02, A 1.78, V 2.96, C 1.6, S 2.76, D 2.71, T 1.7
V5: C 1.9, T 2.12, F 3.07, E 2.5, A 2.29, K 1.82, L 2.2, W 1.59, M 3.01, G 2.49, Y 2.03, H 2.09, I 2.09, N 2.06, P 2.01, Q 1.65, R 2.45, S 1.93, D 2.13
F6: E 3.63, R 2.05, M 2.3, Y 2.13, D 4.17, T 3.11, V 1.94, K 2.66, W 3.77, I 1.99, P 2.09, C 2.18, Q 3.1, H 2.42, S 2.79, A 2.79, N 3.01, G 3.16, L 2.15
P10: Q 1.73, F 2.8, E 2.13, Y 1.69, C 2.43, K 2.27, A 1.84, M 2.62, W 3.14, G 2.65, L 2.7, S 1.38, V 1.82, H 2.12, T 2.17, N 2.06, D 2.47, R 2.13, I 2.2
V2: S 4.24, G 3.76, Y 3.07, M 3.61, A 2.96, Q 3.32, I 2.07, E 4.98, H 2.39, P 3.69, F 2.81, D 4.91, C 2.34, T 2.91, N 4.51, W 2.5, K 4.33, R 4.13, L 3.09
N8: Y 2.88, F 2.85, R 2.3, P 1.82, I 2.35, V 1.83, H 1.76, E 2.14, S 2.33, L 2.61, T 2.68, G 1.83, M 3.09, Q 1.9, A 2.69, W 2.85, K 1.7, C 2.94, D 1.79
Y1: R 3.55, E 4.6, W 1.74, C 2.52, I 2.7, H 4.05, S 4.28, N 4.65, F 1.94, Q 4.06, P 4.42, L 3.4, G 4.12, V 3.15, A 4.19, T 4.31, K 3.77, D 4.52, M 3.69
D3: H 2.07, R 2.28, T 1.82, K 2.13, I 4.3, S 2.99, E 1.87, G 2.85, C 2.31, A 2, V 2.48, M 3.61, F 2.71, P 1.2, W 2.8, Y 2.34, Q 1.91, N 2.01, L 2.51
D11: L 1.89, H 2.28, G 2.19, E 1.6, P 1.67, N 1.67, A 2.79, F 2.46, C 1.77, K 2.05, M 2.04, I 2.2

Variants of: B2
Assay: as above
Details: c terminus: a fixed tail appended

Protein stability index: each site, then its substitutions
I16: E 2.46, D 3.73, G 3.3, R 2.6, L 2.92, N 3.35, S 3.37, F 3.25, W 3.5, K 2.34, M 2.9, C 3.5, A 2.11, Y 2.18
H15: D 2.24, W 2.13, T 2.71, N 3.63, M 3.1, P 3.51, C 2.86, Y 3.19, R 2.97, V 2.21
L14: I 2.22, E 2.14, Y 2.14, K 2.29, M 2.66, W 1.99, R 2.59, D 1.93, C 2.19, T 4.48, N 3.64, V 3.38, P 3.5, H 2.69, S 2.8
R20: W 2.38, I 1.98, K 2.34, T 3.91, H 2.34, L 2.38, Q 1.89, G 2.12, F 2.85, Y 2.76, D 4.23, V 3.27
Y21: E 2.27, V 3.28, R 1.55, Q 3.68, G 3.65, D 1.89, T 3.04, F 3.66, N 1.61, K 2.84, H 2.96, L 2.06, M 4.01, P 3.02
H17: M 3.93, K 2.13, E 1.77, G 4.03, F 2.87, S 3.69, L 2.14, I 2.97, P 2.54, D 3, A 2.18, Q 4.68, Y 2.69, V 4.2
S23: F 2.05, Y 2.19, C 1.99, Q 3.46, V 3.04, I 4, R 4.53, N 1.82, E 2.12, T 3.81
E13: K 2.36, R 3.68, M 2.72, I 3.04, S 1.92, H 3.19, T 2.24, Y 1.93, L 3.25, V 3.39, W 3.26, P 2.44
S24: H 3.15, P 2.94, L 2.58, K 1.12, F 2.37, E 2.21, T 2.47, N 3.95
R18: V 1.65, C 2.63, Q 2.37, L 3.78, M 3.01, H 1.63, E 2.76, K 2.64
L19: W 3.75, N 2.31, C 2.7, T 4.02, D 2.8, M 2.53
L22: I 3.59, E 2.43, P 4.59, G 2.34, C 3.65, K 3.19, N 1.32, F 3.34, T 3.77
